Results from patent US20250282880A1 (NUMAB THERAPEUTICS, published 2025).
Where a chain is given by its changes, count along the chain named. Numbers in names are those of the source.

B1: PRO1898 (scFv)
scFv: DIQMTQSPSSLSARVGDRVTITCQASEDIESYLAWYQQKPGKAPKLLIYRASTLAYGVPSRFSGSGSGRDFTLTISSLQPEDFATYYCLGSSYSTGSNIFGTGTKVTVLGGGGGSGGGGSGGGGSGGGGSEVQLVESGGGLVQPGGSLRLSCAASGFSSSSAHYMCWVRQAPGKGLEWIGCIYAGSRGSTYYASWAKGRFTISRDNSKNTVYLQMNSLRAEDTAVYYCARAAFVNRGVSWIWPYYFSLWGQGTLVTVSS
notes: optimized variant of PRO1517 (VL S14R, T87R, AHo numbering); scFv VL-linker-VH; also called 44-34-C10-sc08
B2: PRO2198 (bispecific antibody, human IgG4 S228P, kappa)
light: DIQMTQSPSSLSARVGDRVTITCQASEDIESYLAWYQQKPGKAPKLLIYRASTLAYGVPSRFSGSGSGRDFTLTISSLQPEDFATYYCLGSSYSTGSNIFGQGTKVEIKRTVAAPSVFIFPPSDEQLKSGTASVVCLLNNFYPREAKVQWKVDNALQSGNSQESVTEQDSKDSTYSLSSTLTLSKADYEKHKVYACEVTHQGLSSPVTKSFNRGEC
heavy: not shown
notes: IgG4 (S228P) Morrison-H, IgG4-(scFv)2: Fab arms 44-34-C10-sc08 (anti-IL-4R), anti-IL-31 scFv 50-09-D07-sc04 fused to the C-terminus of the heavy chain; also called Morrison-H antibody PRO2198; anti-IL-4RxIL-31 bispecific antibody
B3: PRO2199 (bispecific antibody, human IgG4 S228P, kappa)
light: B2 light with R14S, R69T
heavy: not shown
notes: IgG4 (S228P) Morrison-H, IgG4-(scFv)2: Fab arms 44-34-C10-sc09 (anti-IL-4R), anti-IL-31 scFv 50-09-D07-sc04 fused to the C-terminus of the heavy chain; also called Morrison-H antibody PRO2199; anti-IL-4RxIL-31 bispecific antibody

Columns and labels:
IL-4R on HEK-Blue cells [1] = target: T1, IL-4R on HEK-Blue cells (human, UniProt P24394 26-825); assay: cell-based or functional assay
cynomolgus IL-4R-Fc = target: T2, cynomolgus IL-4R-Fc (cynomolgus monkey (Macaca fascicularis), UniProt A0A2K5V580 33-239); assay: SPR, capture setup: cynomolgus IL-4R-Fc captured, scFv as analyte
T2 construct: also called cynomolgus IL-4R (capture setup); not shown: Fc part

Human IL-4R-Fc = target: T3, Human IL-4R-Fc (human, UniProt P24394 26-232); assay: SPR (Biacore T200), human IL-4R-Fc captured, scFv as analyte 0.12 to 90 nM, 1:1 model
T3 construct: not shown: Fc part (captured via anti-human IgG-Fc)
Method: Affinity of the 16 humanized scFvs (derived from 5 rabbit monoclonal antibodies) to human IL-4R was determined by SPR analysis on a T200 device (Biacore, GE Healthcare). Human IL-4R-Fc was captured via an anti-human IgG-Fc coupled to a carboxylmethylated dextran surface and the scFvs were injected as analyte. After each analyte injection cycle the sensor chip was regenerated and new antigen was captured. The scFvs were measured using a dose response multi-cycle kinetic assay with seven analyte concentrations ranging from 0.12 to 90 nM diluted in running buffer. Obtained sensorgrams were fitted using a 1:1 binding model.
The scFvs were measured using a dose response multi-cycle kinetic assay with seven analyte concentrations ranging from 0.12 to 90 nM diluted in running buffer. Obtained sensorgrams were fitted using a 1:1 binding model.

Biotinylated IL-4R = target: T4, Biotinylated IL-4R (human, UniProt P24394 26-232, limits assumed, biotinylated); assay: competitive ELISA: IL-4 coated, biotinylated IL-4R preincubated with scFv
T4 construct: also called human IL-4R; hIL-4R
Source text: Bound biotinylated IL-4R was then detected using streptavidin-HRP.

IL-4R on HEK-Blue cells [2] = target: T1, IL-4R on HEK-Blue cells; assay: cell-based or functional assay; remark: listed apart in the source
[3] = target: T5, recombinant human IL-4R protein (ECD with His Tag, Sino Biological) (human, UniProt P24394 26-232); assay: SPR (Biacore T200), Morrison antibody captured via anti-human IgG-Fc, human IL-4R ECD-His as analyte 0.175 to 45 nM, 1:1 model
T5 construct: extracellular domain; analyte in the SPR of the Morrison-H antibodies; also called human IL-4R ECD; not shown: His tag
Method: (§1) In this SPR experiment, Morrison molecules were captured via an anti-human IgG-Fc antibody (Human Antibody Capture Kit; Biacore, Cytiva) covalently immobilized to a carboxylmethylated dextran surface (CM5 sensorchip; Biacore, Cytiva) and a titration series of human IL-4R ECD was injected as analyte. After each analyte injection cycle, the sensor chip was regenerated (MgCl₂), and new Morrison antibody was subsequently re-captured. […] The apparent dissociation (kd) and association (kₐ) rate constants and the apparent dissociation equilibrium constant (KD) were calculated with the Biacore analysis software (Biacore Evaluation software Version 3.2, Cytiva) using one-to-one Langmuir binding model and quality of the fits was monitored based on Chi2 and U-value, which are measures for the quality of the curve fitting. The binding level was calculated as the maximum stability binding achieved normalized to the theoretical Rmax. Cross-reactivity to cynomolgus monkey IL-4R was measured using the same setup as for the analysis of human IL-4R kinetics, with the difference that recombinant cynomolgus monkey IL-4R (ECD with His-tag, Acro Biosystems) protein was used as analyte instead of human IL-4R.

IL-4R on HEK-Blue cells [4] = target: T1, IL-4R on HEK-Blue cells; assay: cell-based or functional assay; remark: listed apart in the source
[5] = target: T6, recombinant cynomolgus monkey IL-4R (ECD with His-tag, Acro Biosystems) (cynomolgus monkey, UniProt A0A2K5V556 26-232); assay: SPR (Biacore T200), Morrison antibody captured via anti-human IgG-Fc, cynomolgus IL-4R ECD-His as analyte, 1:1 model
T6 construct: analyte in the SPR of the Morrison-H antibodies; also called cynomolgus IL-4R
Method: as §1

Row | Binder | Kd [3] [nM] | koff [3] [s⁻¹] | kon [3] [M⁻¹ s⁻¹] | Mean IC50, neutralization of human IL-4-induced signaling in the stat-6 reporter gene assay (IL-4R on HEK-Blue cells [4]) [nM] | Mean rel. IC50 [IC50 dupilumab/IC50 sample], human IL-4-induced signaling (IL-4R on HEK-Blue cells [4]) [ratio] | Retained IC50 with and without IL-31 excess (n = 1) [IC50, no IL-31/IC50, with IL-31] (IL-4R on HEK-Blue cells [4]) [ratio] | Kd [5] [nM] | koff [5] [s⁻¹] | kon [5] [M⁻¹ s⁻¹] | other results
1 | B1 | – | – | – | – | – | – | – | – | – | IC50, neutralization of hIL-4 induced signaling in reporter gene assay (IL-4R on HEK-Blue cells [1]): 1 ng/mL; IC50, neutralization of hIL-13 induced signaling in reporter gene assay (IL-4R on HEK-Blue cells [1]): 1.15 ng/mL; rel. IC50 (IC50, dupilumab/IC50, test sample), hIL-4 induced signaling (IL-4R on HEK-Blue cells [1]): 1.15 ratio; rel. IC50 (IC50, dupilumab/IC50, test sample), hIL-13 induced signaling (IL-4R on HEK-Blue cells [1]): 0.87 ratio; Kd (cynomolgus IL-4R-Fc): 0.0908 nM; koff (cynomolgus IL-4R-Fc): 0.000109 s⁻¹; kon (cynomolgus IL-4R-Fc): 1.2e+06 M⁻¹ s⁻¹; Kd (Human IL-4R-Fc): 0.00791 nM; koff (Human IL-4R-Fc): 1.7e-05 s⁻¹; kon (Human IL-4R-Fc): 2.15e+06 M⁻¹ s⁻¹; IC50 (Biotinylated IL-4R): 3.41 ng/mL; rel. IC50 (IC50, dupilumab/IC50, test sample) (Biotinylated IL-4R): 1.95 ratio
2 | B2 | 0.291 | 0.000101 | 352000 | 0.0239 | 0.42 | 0.71 | 0.144 | 4.9e-05 | 370000 | Mean IC50, neutralization of human IL-13 induced signaling in the stat-6 reporter gene assay (IL-4R on HEK-Blue cells [2]): 0.0221 nM; Mean rel. IC50 [IC50 dupilumab/IC50 sample], human IL-13 induced signaling (IL-4R on HEK-Blue cells [2]): 0.42 ratio
3 | B3 | 0.197 | 5.76e-05 | 293000 | 0.0115 | 0.72 | 1.25 | 0.0351 | 3.44e-05 | 980000 | Mean IC50, neutralization of human IL-13 induced signaling in the stat-6 reporter gene assay (single analysis) (IL-4R on HEK-Blue cells [2]): 0.0113 nM; Mean rel. IC50 [IC50 dupilumab/IC50 sample], human IL-13 induced signaling (single analysis) (IL-4R on HEK-Blue cells [2]): 0.69 ratio
